Measurements published in patent US20190225703A1.

Biological target: cynomolgus CD73 expressed at the cell surface (cynomolgus)
Test: flow cytometry titration on cynomolgus-CD73-expressing cell line

Substance: antibody AD2 (Biolegend Corp, product ref. 344004)
- EC50: 1.15 mg/L
- fold higher concentration (EC50) than 7H10: 4 fold
